In the Human Domainome abundance scans (Beltran et al. 2025) one finds abundance fitness data, which are given here for 83 variants.

B1: Zinc finger homeobox protein 3, residues 2643 to 2698; numbered along this chain, Q15911 (parent)
chain: RLRTTITPEQLEILYQKYLLDSNPTRKMLDHIAHEVGLKKRVVQVWFQNTRARERK

± gives the uncertainty stated by the source.

Variants of B1 are the subject of the series. Description: abundance fitness (aPCA) (normalised: wild type 0, dead -1); higher = more abundant; growth selection in yeast, the domain comes from the species named. As to conditions: Homo sapiens.
For the variant RLRTTITPEQLEILYQKYLLDSNPTRKMLDHIAHEVGLKKRVVQVWFQNTYARERK [R51Y], the abundance fitness amounted to 0.073 ± 0.17.
Then RLRTTITPEQLEILYQKYLLDSNPTRKMLDHIAHEVGLKKRVVQVWFQNTRATERK [R53T], with 0.029 ± 0.11.
On to RLRTTITPEQLEILYQKYLLDSNPTRKMLDHIAHEVGLKKRVVQVWFQNTRANERK [R53N], for which the abundance fitness came out at 0.172 ± 0.15.
In the case of RLRTTITPEQLEILYQKYLLDSNPTRKMLDHIAHEVGLKKRVVQVWFQNTRAGERK [R53G] it was 0.126 ± 0.071; in that of RLRTTITPEQLEILYQKYLLDSNPTRKMLDHIAHEVGLKKRVVQVWFQNTRAAERK [R53A], 0.092 ± 0.076; in that of RLRTTITPEQLEILYQKYLLDSNPTRKMLDHIAHEVGLKKRVVQVWFQNTRACERK [R53C], 0.052 ± 0.12.
Take RLRTTITPEQLEILYQKYLLDSNPTRKMLDHIAHEVGLKKRVVQVWFQNTRASERK [R53S]: the abundance fitness was determined as 0.133 ± 0.086.
Consider RLRTTITPEQLEILYQKYLLDSNPTRKMLDHIAHEVGLKKRVVQVWFQNTRAKERK [R53K], for which the abundance fitness was -0.045 ± 0.12.
Then RLRTTITPEQLEILYQKYLLDSNPTRKMLDHIAHEVGLKKRVVQVWFQNTRAFERK [R53F], with 0.239 ± 0.24; and RLRTTITPEQLEILYQKYLLDSNPTRKMLDHIAHEVGLKKRVVQVWFQNTRAHERK [R53H], with -0.258 ± 0.15.
Then RLRTTITPEQLEILYQKYLLDSNPTRKMLDHIAHEVGLKKRVVQVWFQNTRADERK [R53D], with 0.31 ± 0.14.
For the variant RLRTTITPEQLEILYQKYLLDSNPTRKMLDHIAHEVGLKKRVVQVWFQNTRAMERK [R53M], the abundance fitness was -0.132 ± 0.098.
Then RLRTTITPEQLEILYQKYLLDSNPTRKMLDHIAHEVGLKKRVVQVWFQNTRALERK [R53L], with -0.006 ± 0.08.
Then RLRTTITPEQLEILYQKYLLDSNPTRKMLDHIAHEVGLKKRVVQVWFQNTRAEERK [R53E], with 0.288 ± 0.11; and RLRTTITPEQLEILYQKYLLDSNPTRKMLDHIAHEVGLKKRVVQVWFQNTRAPERK [R53P], with -0.266 ± 0.14.
In the case of RLRTTITPEQLEILYQKYLLDSNPTRKMLDHIAHEVGLKKRVVQVWFQNTRAYERK [R53Y] it was -0.327 ± 0.15.
Regarding RLRTTITPEQLEILYQKYLLDSNPTRKMLDHIAHEVGLKKRVVQVWFQNTRAVERK [R53V], the abundance fitness is 0.013 ± 0.076.
As to RLRTTITPEQLEILYQKYLLDSNPTRKMLDHIAHEVGLKKRVVQVWFQNTRARIRK [E54I], the abundance fitness is -0.197 ± 0.1.
In the case of RLRTTITPEQLEILYQKYLLDSNPTRKMLDHIAHEVGLKKRVVQVWFQNTRARMRK [E54M] it was -0.177 ± 0.09.
Then RLRTTITPEQLEILYQKYLLDSNPTRKMLDHIAHEVGLKKRVVQVWFQNTRARSRK [E54S], with -0.497 ± 0.074; and RLRTTITPEQLEILYQKYLLDSNPTRKMLDHIAHEVGLKKRVVQVWFQNTRARRRK [E54R], with -0.701 ± 0.09.
Take RLRTTITPEQLEILYQKYLLDSNPTRKMLDHIAHEVGLKKRVVQVWFQNTRARNRK [E54N]: the abundance fitness was -0.531 ± 0.1.
In the case of RLRTTITPEQLEILYQKYLLDSNPTRKMLDHIAHEVGLKKRVVQVWFQNTRARWRK [E54W] it was -0.512 ± 0.12; in that of RLRTTITPEQLEILYQKYLLDSNPTRKMLDHIAHEVGLKKRVVQVWFQNTRARQRK [E54Q], -0.495 ± 0.11; in that of RLRTTITPEQLEILYQKYLLDSNPTRKMLDHIAHEVGLKKRVVQVWFQNTRARTRK [E54T], -0.361 ± 0.077.
In the case of RLRTTITPEQLEILYQKYLLDSNPTRKMLDHIAHEVGLKKRVVQVWFQNTRARGRK [E54G] it was -0.305 ± 0.088; in that of RLRTTITPEQLEILYQKYLLDSNPTRKMLDHIAHEVGLKKRVVQVWFQNTRARLRK [E54L], -0.2 ± 0.069; in that of RLRTTITPEQLEILYQKYLLDSNPTRKMLDHIAHEVGLKKRVVQVWFQNTRARDRK [E54D], 0.014 ± 0.097.
Turning to RLRTTITPEQLEILYQKYLLDSNPTRKMLDHIAHEVGLKKRVVQVWFQNTRARFRK [E54F], the abundance fitness is -0.167 ± 0.088.
In the case of RLRTTITPEQLEILYQKYLLDSNPTRKMLDHIAHEVGLKKRVVQVWFQNTRARHRK [E54H] it was -0.229 ± 0.084; in that of RLRTTITPEQLEILYQKYLLDSNPTRKMLDHIAHEVGLKKRVVQVWFQNTRARYRK [E54Y], -0.438 ± 0.11; in that of RLRTTITPEQLEILYQKYLLDSNPTRKMLDHIAHEVGLKKRVVQVWFQNTRARCRK [E54C], -0.306 ± 0.1.
Then RLRTTITPEQLEILYQKYLLDSNPTRKMLDHIAHEVGLKKRVVQVWFQNTRARVRK [E54V], with -0.39 ± 0.079.
As to RLRTTITPEQLEILYQKYLLDSNPTRKMLDHIAHEVGLKKRVVQVWFQNTRARARK [E54A], the abundance fitness was -0.478 ± 0.072.
Then RLRTTITPEQLEILYQKYLLDSNPTRKMLDHIAHEVGLKKRVVQVWFQNTRARPRK [E54P], with -0.38 ± 0.076; and RLRTTITPEQLEILYQKYLLDSNPTRKMLDHIAHEVGLKKRVVQVWFQNTRDRERK [A52D], with 0.244 ± 0.12; and RLRTTITPEQLEILYQKYLLDSNPTRKMLDHIAHEVGLKKRVVQVWFQNTRFRERK [A52F], with -0.428 ± 0.2.
In the case of RLRTTITPEQLEILYQKYLLDSNPTRKMLDHIAHEVGLKKRVVQVWFQNTRYRERK [A52Y] it was -0.221 ± 0.22.
Then RLRTTITPEQLEILYQKYLLDSNPTRKMLDHIAHEVGLKKRVVQVWFQNTRMRERK [A52M], with -0.138 ± 0.11; and RLRTTITPEQLEILYQKYLLDSNPTRKMLDHIAHEVGLKKRVVQVWFQNTRIRERK [A52I], with -0.639 ± 0.18.
In the case of RLRTTITPEQLEILYQKYLLDSNPTRKMLDHIAHEVGLKKRVVQVWFQNTRLRERK [A52L], the abundance fitness is -0.317 ± 0.086.
In the case of RLRTTITPEQLEILYQKYLLDSNPTRKMLDHIAHEVGLKKRVVQVWFQNTRVRERK [A52V] it was -0.349 ± 0.082; in that of RLRTTITPEQLEILYQKYLLDSNPTRKMLDHIAHEVGLKKRVVQVWFQNTRERERK [A52E], 0.291 ± 0.12.
Then RLRTTITPEQLEILYQKYLLDSNPTRKMLDHIAHEVGLKKRVVQVWFQNTRSRERK [A52S], with -0.021 ± 0.083; and RLRTTITPEQLEILYQKYLLDSNPTRKMLDHIAHEVGLKKRVVQVWFQNTRWRERK [A52W], with -0.335 ± 0.097; and RLRTTITPEQLEILYQKYLLDSNPTRKMLDHIAHEVGLKKRVVQVWFQNTRPRERK [A52P], with -0.598 ± 0.14.
Then RLRTTITPEQLEILYQKYLLDSNPTRKMLDHIAHEVGLKKRVVQVWFQNTRTRERK [A52T], with -0.419 ± 0.1; and RLRTTITPEQLEILYQKYLLDSNPTRKMLDHIAHEVGLKKRVVQVWFQNTRKRERK [A52K], with 0.035 ± 0.14; and RLRTTITPEQLEILYQKYLLDSNPTRKMLDHIAHEVGLKKRVVQVWFQNTRQRERK [A52Q], with 0.21 ± 0.11.
As to RLRTTITPEQLEILYQKYLLDSNPTRKMLDHIAHEVGLKKRVVQVWFQNTRNRERK [A52N], the abundance fitness was 0.062 ± 0.14.
In the case of RLRTTITPEQLEILYQKYLLDSNPTRKMLDHIAHEVGLKKRVVQVWFQNTRGRERK [A52G] it was -0.037 ± 0.078; in that of RLRTTITPEQLEILYQKYLLDSNPTRKMLDHIAHEVGLKKRVVQVWFQNTRCRERK [A52C], -0.209 ± 0.12.
Then RLRTTITPEQLEILYQKYLLDSNPTRKMLDHIAHEVGLKKRVVQVWFQNTRARENK [R55N], with 0.462 ± 0.17; and RLRTTITPEQLEILYQKYLLDSNPTRKMLDHIAHEVGLKKRVVQVWFQNTRAREMK [R55M], with 0.483 ± 0.21.
In the case of RLRTTITPEQLEILYQKYLLDSNPTRKMLDHIAHEVGLKKRVVQVWFQNTRAREAK [R55A] it was 0.239 ± 0.086.
Take RLRTTITPEQLEILYQKYLLDSNPTRKMLDHIAHEVGLKKRVVQVWFQNTRAREYK [R55Y]: the abundance fitness is 0.113 ± 0.14.
In the case of RLRTTITPEQLEILYQKYLLDSNPTRKMLDHIAHEVGLKKRVVQVWFQNTRAREQK [R55Q] it was 0.216 ± 0.18; in that of RLRTTITPEQLEILYQKYLLDSNPTRKMLDHIAHEVGLKKRVVQVWFQNTRAREKK [R55K], 0.496 ± 0.27; in that of RLRTTITPEQLEILYQKYLLDSNPTRKMLDHIAHEVGLKKRVVQVWFQNTRAREPK [R55P], 0.105 ± 0.14.
In the case of RLRTTITPEQLEILYQKYLLDSNPTRKMLDHIAHEVGLKKRVVQVWFQNTRAREIK [R55I] it was 0.142 ± 0.18; in that of RLRTTITPEQLEILYQKYLLDSNPTRKMLDHIAHEVGLKKRVVQVWFQNTRAREVK [R55V], 0.282 ± 0.082; in that of RLRTTITPEQLEILYQKYLLDSNPTRKMLDHIAHEVGLKKRVVQVWFQNTRARETK [R55T], 0.479 ± 0.14.
Then RLRTTITPEQLEILYQKYLLDSNPTRKMLDHIAHEVGLKKRVVQVWFQNTRAREHK [R55H], with 0.001 ± 0.25.
RLRTTITPEQLEILYQKYLLDSNPTRKMLDHIAHEVGLKKRVVQVWFQNTRAREWK [R55W]: the abundance fitness was determined as 0.017 ± 0.1.
Then RLRTTITPEQLEILYQKYLLDSNPTRKMLDHIAHEVGLKKRVVQVWFQNTRARESK [R55S], with 0.347 ± 0.094.
In the case of RLRTTITPEQLEILYQKYLLDSNPTRKMLDHIAHEVGLKKRVVQVWFQNTRAREFK [R55F] it was 0.004 ± 0.18.
With RLRTTITPEQLEILYQKYLLDSNPTRKMLDHIAHEVGLKKRVVQVWFQNTRARECK [R55C], the abundance fitness is 0.263 ± 0.099.
Then RLRTTITPEQLEILYQKYLLDSNPTRKMLDHIAHEVGLKKRVVQVWFQNTRAREEK [R55E], with 0.255 ± 0.13; and RLRTTITPEQLEILYQKYLLDSNPTRKMLDHIAHEVGLKKRVVQVWFQNTRARERV [K56V], with -0.073 ± 0.18.
Consider RLRTTITPEQLEILYQKYLLDSNPTRKMLDHIAHEVGLKKRVVQVWFQNTRARERH [K56H], for which the abundance fitness was -0.17 ± 0.4.
Then RLRTTITPEQLEILYQKYLLDSNPTRKMLDHIAHEVGLKKRVVQVWFQNTRARERE [K56E], with 0.466 ± 0.2; and RLRTTITPEQLEILYQKYLLDSNPTRKMLDHIAHEVGLKKRVVQVWFQNTRARERR [K56R], with -0.35 ± 0.17; and RLRTTITPEQLEILYQKYLLDSNPTRKMLDHIAHEVGLKKRVVQVWFQNTRARERG [K56G], with 0.001 ± 0.15.
Then RLRTTITPEQLEILYQKYLLDSNPTRKMLDHIAHEVGLKKRVVQVWFQNTRARERS [K56S], with 0.262 ± 0.14; and RLRTTITPEQLEILYQKYLLDSNPTRKMLDHIAHEVGLKKRVVQVWFQNTRARERY [K56Y], with -0.54 ± 0.19; and RLRTTITPEQLEILYQKYLLDSNPTRKMLDHIAHEVGLKKRVVQVWFQNTRARERA [K56A], with 0.034 ± 0.33.
Then RLRTTITPEQLEILYQKYLLDSNPTRKMLDHIAHEVGLKKRVVQVWFQNTRARERP [K56P], with -0.225 ± 0.38; and RLRTTITPEQLEILYQKYLLDSNPTRKMLDHIAHEVGLKKRVVQVWFQNTRARERQ [K56Q], with 0.032 ± 0.21.
Regarding RLRTTITPEQLEILYQKYLLDSNPTRKMLDHIAHEVGLKKRVVQVWFQNTRARERL [K56L], the abundance fitness is -0.527 ± 0.29.
In the case of RLRTTITPEQLEILYQKYLLDSNPTRKMLDHIAHEVGLKKRVVQVWFQNTRARERN [K56N] it was -0.07 ± 0.21.
In the case of RLRTTITPEQLEILYQKYLLDSNPTRKMLDHIAHEVGLKKRVVQVWFQNTRARERT [K56T] it was 0.01 ± 0.23; in that of RLRTTITPEQLEILYQKYLLDSNPTRKMLDHIAHEVGLKKRVVQVWFQNTRARERM [K56M], -0.204 ± 0.4.
Then RLRTTITPEQLEILYQKYLLDSNPTRKMLDHIAHEVGLKKRVVQVWFQNTRARERW [K56W], with -0.314 ± 0.28.
